Source: IntAct's records for PubMed 25374563

B1: Tyrosine-protein kinase YwqD (Bacillus subtilis), P96716 (parent)
chain: MALRKNRGSRMQRNVIAMTEPKSLNSEQYRTIRTNIEFASVDRQMKSVMITSACPGEGKSTTAANLAVVFAQQGKKVLLIDADLRKPTVHTAFFLENTVGLTSVLLKKSSMEQAVQASNEKHLDVLTSGPIPPNPAELLSSKWMKELAYEACAAYDMVIFDTPPILAVADAQILGNVADGSVLVISSGKTEKEQAAKAKEALATCKSKLLGAIMNGKKLSKHSEYGYYGTKDNFMQK
partner: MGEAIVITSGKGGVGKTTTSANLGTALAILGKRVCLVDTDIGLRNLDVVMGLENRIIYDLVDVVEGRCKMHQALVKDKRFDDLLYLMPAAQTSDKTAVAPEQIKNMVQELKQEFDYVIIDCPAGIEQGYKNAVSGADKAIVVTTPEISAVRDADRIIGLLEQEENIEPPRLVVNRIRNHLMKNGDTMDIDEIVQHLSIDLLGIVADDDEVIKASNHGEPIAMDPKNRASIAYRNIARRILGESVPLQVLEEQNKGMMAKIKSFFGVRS

Variants of: B1
Conditions: with mind_bacsu minD

Variant | effect of a mutation on the interaction
MALRKNRGSRMQRNVIAMTEPKSLNSEQYRTIRTNIEFASVDRQMKSVMITSACPGEGMSTTAANLAVVFAQQGKKVLLIDADLRKPTVHTAFFLENTVGLTSVLLKKSSMEQAVQASNEKHLDVLTSGPIPPNPAELLSSKWMKELAYEACAAYDMVIFDTPPILAVADAQILGNVADGSVLVISSGKTEKEQAAKAKEALATCKSKLLGAIMNGKKLSKHSEYGYYGTKDNFMQK [K59M] | disrupting interaction strength
MALRKNRGSRMQRNVIAMTEPKSLNSEQYRTIRTNIEFASVDRQMKSVMITSACPGEGKSTTAANLAVVFAQQGKKVLLIAADLRKPTVHTAFFLENTVGLTSVLLKKSSMEQAVQASNEKHLDVLTSGPIPPNPAELLSSKWMKELAYEACAAYDMVIFDTPPILAVADAQILGNVADGSVLVISSGKTEKEQAAKAKEALATCKSKLLGAIMNGKKLSKHSEYGYYGTKDNFMQK [D81A] | decreasing interaction strength
